Test results as given in patent US20220089722A1 (NANTONG YICHEN BIOPHARMA, published 2022).

Assays:
EGFR on F98-EGFR cells [1] = molecular target: T1, EGFR on F98-EGFR cells (UniProt P00533 25-1210, limits assumed); experiment: cell-based or functional assay
EGFR on F98-EGFR cells [2] = molecular target: T1, EGFR on F98-EGFR cells; experiment: flow cytometry on F98-EGFR cells
Method: F98-EGFR cells (a DMEM containing 10% FBS, 200 μg/ml G418) were cultured. 2×10⁵ cells were washed by precooled PBS for 3 times, and blocked by 2% FBS (soluble to PBS). IgFD-8, IgFD-9, IgFD-10, IgFD-11, IgFD-18, IgFD-19, IgFD-25, IgFD-26 or IgFD-31 (aEGFR expressed in a laboratory as a control) was added and incubated for 2 h at 4° C. (cells were gently mixed during incubation), unbounded antibodies were washed by 2% FBS (soluble to PBS), and then the remaining cells were incubated by FITC anti-human IgGFc(KPL, Inc., MD) for 1 h at 4° C., and washed by 2% FBS (soluble to PBS) for flow cytometry analysis. As shown in FIG. 7 and Table 4, the anti-CD3/anti-EGFR heterodimers in different forms of fusion could bind to EGFR on F98-EGFR cells, and there was no significant difference in the binding capacity of different heterodimers to F98-EGFR.

[3] = molecular target: T2, CD3 on T cells (Jurkat T cells; PBMC-T cells); experiment: flow cytometry on Jurkat T cells
T2 construct: whole, on cells; the target is inferred from the anti-CD3 arm of the constructs
T2 sequence (P07766 23-207): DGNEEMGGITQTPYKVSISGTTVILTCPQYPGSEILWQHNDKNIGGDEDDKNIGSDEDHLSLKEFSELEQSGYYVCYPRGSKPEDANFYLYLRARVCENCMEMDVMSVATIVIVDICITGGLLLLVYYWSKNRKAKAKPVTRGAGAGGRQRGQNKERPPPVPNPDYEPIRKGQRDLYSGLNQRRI
Method: Jurkat cells (a medium containing 10% FBS) were cultured. 2×10⁵ cells were washed by precooled PBS for 3 times, and blocked by 2% FBS (soluble to PBS). Purified IgFD-11, IgFD-8, IgFD-25, IgFD-26, IgFD-31 or IgFD-36 (aEGFR expressed in a laboratory as a control) were added and incubated for 2 h at 4° C. (cells were gently mixed during incubation), followed by 2% FBS(in PBS) wash. The cells were incubated by FITC anti-human IgGFc (KPL, Inc., MD) for 1 h at 4° C. and subjected to flow cytometry analysis after washing with 2% FBS(in PBS).

EGFR on F98-EGFR cells [4] = molecular target: T1, EGFR on F98-EGFR cells; experiment: flow cytometry on F98-EGFR cells; protein purified on CH1 resin
[5] = molecular target: T2, CD3 on T cells (Jurkat T cells; PBMC-T …); experiment: flow cytometry on Jurkat T cells; protein purified on CH1 resin
EGFR on F98-EGFR cells [6] = molecular target: T1, EGFR on F98-EGFR cells; experiment: flow cytometry on F98-EGFR cells; protein purified on Protein A resin
[7] = molecular target: T2, CD3 on T cells (Jurkat T cells; PBMC-T …); experiment: flow cytometry on Jurkat T cells; protein purified on Protein A resin

B1: IgFD-25(anti-CD3/EGFR) (bispecific antibody, human IgG1, kappa)
chain 1: EVQLVESGGGLVQPGGSLRLSCAASGFTFNTYAMNWVRQAPGKGLEWVARIRSKYNNYATYYADSVKDRFTISRDDSKNTLYLQMNSLRAEDTAVYYCVRHGNFGNSYVSWFAYWGQGTLVTVSSASTKGPSVFPLAPSSKSTSGGTAALGCLVKDYFPEPVTVSWNSGALTSGVHTFPAVLQSSGLYSLSSVVTVPSSSLGTQTYICNVNHKPSNTKVDKKVEPKSCDKTHTCPPCPAPPVAGPSVFLFPPKPKDTLMISRTPEVTCVVVDVSHEDPEVKFNWYVDGVEVHNAKTKPREEQYNSTYRVVSVLTVLHQDWLNGKEYKCKVSNKGLPSSIEKTISKAKGQPREPQVYTLPPCRDELTKNQVSLWCLVKGFYPSDIAVEWESNGQPENNYKTTPPVLDSDGSFFLYSKLTVDKSRWQQGNVFSCSVMHEALHNHYTQKSLSLSPGK
chain 2: QAVVTQEPSLTVSPGGTVTLTCRSSTGAVTTSNYANWVQQKPDHLFRGLIGGTNKRAPGTPARFSGSLLGDKAALTISGAQPEDEAEYYCALWYSNLWVFGGGTKLTVLKRTVAAPSVFIFPPSDEQLKSGTASVVCLLNNFYPREAKVQWKVDNALQSGNSQESVTEQDSKDSTYSLSSTLTLSKADYEKHKVYACEVTHQGLSSPVTKSFNRGECDKTHTCPPCPAPPVAGPSVFLFPPKPKDTLMISRTPEVTCVVVDVSHEDPEVKFNWYVDGVEVHNAKTKPREEQYNSTYRVVSVLTVLHQDWLNGKEYKCKVSNKGLPSSIEKTISKAKGQPREPQVCTLPPSRDELTKNQVSLSCAVKGFYPSDIAVEWESNGQPENNYKTTPPVLDSDGSFFLVSKLTVDKSRWQQGNVFSCSVMHEALHNHYTQKSLSLSPGKGGSGGSGGGGSGGGGSDIQMTQSPSSLSASVGDRVTITCQASQDISNYLNWYQQKPGKAPKLLIYDASNLETGVPSRFSGSGSGTDFTFTISSLQPEDIATYFCQHFDHLPLAFGGGTKVEIKGGGGSGGGGSGGGGSQVQLQESGPGLVKPSETLSLTCTVSGGSVSSGDYYWTWIRQSPGKGLEWIGHIYYSGNTNYNPSLKSRLTISIDTSKTQFSLKLSSVTAADTAIYYCVRDRVTGAFDIWGQGTMVTVSS
EGFR on F98-EGFR cells [1]
  Promotion for the specific killing effect of PBMCs on target cells by heterodimers (EC50, pM); F98-EGFR cells, LDH assay: 11 pM
EGFR on F98-EGFR cells [2]
  Kd: 1.12 nM
[3]
  Kd: 7.72 nM

B2: IgFD-26(anti-CD3/EGFR) (bispecific antibody, human IgG1, kappa, N297A)
chain 1: not shown
chain 2: QAVVTQEPSLTVSPGGTVTLTCRSSTGAVTTSNYANWVQQKPDHLFRGLIGGTNKRAPGTPARFSGSLLGDKAALTISGAQPEDEAEYYCALWYSNLWVFGGGTKLTVLKRTVAAPSVFIFPPSDEQLKSGTASVVCLLNNFYPREAKVQWKVDNALQSGNSQESVTEQDSKDSTYSLSSTLTLSKADYEKHKVYACEVTHQGLSSPVTKSFNRGECDKTHTCPPCPAPELLGGPSVFLFPPKPKDTLMISRTPEVTCVVVDVSHEDPEVKFNWYVDGVEVHNAKTKPREEQYASTYRVVSVLTVLHQDWLNGKEYKCKVSNKALPAPIEKTISKAKGQPREPQVCTLPPSREEMTKNQVSLSCAVKGFYPSDIAVEWESNGQPENNYKTTPPVLDSDGSFFLVSKLTVDKSRWQQGNVFSCSVMHEALHNHYTQKSLSLSPGKGGSGGSGGGGSGGGGSDIQMTQSPSSLSASVGDRVTITCQASQDISNYLNWYQQKPGKAPKLLIYDASNLETGVPSRFSGSGSGTDFTFTISSLQPEDIATYFCQHFDHLPLAFGGGTKVEIKGGGGSGGGGSGGGGSQVQLQESGPGLVKPSETLSLTCTVSGGSVSSGDYYWTWIRQSPGKGLEWIGHIYYSGNTNYNPSLKSRLTISIDTSKTQFSLKLSSVTAADTAIYYCVRDRVTGAFDIWGQGTMVTVSS
EGFR on F98-EGFR cells [1]
  Promotion for the specific killing effect of PBMCs on target cells by heterodimers (EC50, pM); F98-EGFR cells, LDH assay: 105 pM
EGFR on F98-EGFR cells [2]
  Kd: 5.28 nM
[3]
  Kd: 4.23 nM

B3: IgFD-30(anti-CD3/EGFR) (bispecific antibody, human IgG1, kappa)
chain 1: EVQLVESGGGLVQPGGSLRLSCAASGFTFNTYAMNWVRQAPGKGLEWVARIRSKYNNYATYYADSVKDRFTISRDDSKNTLYLQMNSLRAEDTAVYYCVRHGNFGNSYVSWFAYWGQGTLVTVSSASTKGPSVFPLAPSSKSTSGGTAALGCLVKDYFPEPVTVSWNSGALTSGVHTFPAVLQSSGLYSLSSVVTVPSSSLGTQTYICNVNHKPSNTKVDKKVEPKSCDKTHTCPPCPAPPVAGPSVFLFPPKPKDTLMISRTPEVTCVVVDVSHEDPEVKFNWYVDGVEVHNAKTKPREEQYNSTYRVVSVLTVLHQDWLNGKEYKCKVSNKGLPSSIEKTISKAKGQPREPQVYTLPPCRDELTKNQVSLWCLVKGFYPSDIAVEWESNGQPENNYKTTPPVLDSDGSFFLYSKLTVDKSRWQQGNVFSCSVMHEALHNHYTQKSLSLSPGKGGSGGSGGGGSGGGGSDIQMTQSPSSLSASVGDRVTITCQASQDISNYLNWYQQKPGKAPKLLIYDASNLETGVPSRFSGSGSGTDFTFTISSLQPEDIATYFCQHFDHLPLAFGGGTKVEIK
chain 2: QAVVTQEPSLTVSPGGTVTLTCRSSTGAVTTSNYANWVQQKPDHLFRGLIGGTNKRAPGTPARFSGSLLGDKAALTISGAQPEDEAEYYCALWYSNLWVFGGGTKLTVLKRTVAAPSVFIFPPSDEQLKSGTASVVCLLNNFYPREAKVQWKVDNALQSGNSQESVTEQDSKDSTYSLSSTLTLSKADYEKHKVYACEVTHQGLSSPVTKSFNRGECDKTHTCPPCPAPPVAGPSVFLFPPKPKDTLMISRTPEVTCVVVDVSHEDPEVKFNWYVDGVEVHNAKTKPREEQYNSTYRVVSVLTVLHQDWLNGKEYKCKVSNKGLPSSIEKTISKAKGQPREPQVCTLPPSRDELTKNQVSLSCAVKGFYPSDIAVEWESNGQPENNYKTTPPVLDSDGSFFLVSKLTVDKSRWQQGNVFSCSVMHEALHNHYTQKSLSLSPGKGGSGGSGGGGSGGGGSQVQLQESGPGLVKPSETLSLTCTVSGGSVSSGDYYWTWIRQSPGKGLEWIGHIYYSGNTNYNPSLKSRLTISIDTSKTQFSLKLSSVTAADTAIYYCVRDRVTGAFDIWGQGTMVTVSS
notes: (ProA)/(CH1) = purification resin; also called IgFD-30(ProA); IgFD-30(CH1)
EGFR on F98-EGFR cells [1]
  Promotion for the specific killing effect of PBMCs on target cells by heterodimers (EC50, pM); F98-EGFR cells, LDH assay; IgFD-30(CH1): 435 pM
  Promotion for the specific killing effect of PBMCs on target cells by heterodimers (EC50, pM); F98-EGFR cells, LDH assay; IgFD-30(ProA): 651 pM
EGFR on F98-EGFR cells [4]
  Kd: 86.3 nM
[5]
  Kd: 7.35 nM
EGFR on F98-EGFR cells [6]
  Kd: 131 nM
[7]
  Kd: 6.74 nM

B4: IgFD-31(anti-CD3/EGFR) (bispecific antibody)
chain 1: EVQLVESGGGLVQPGGSLRLSCAASGFTFNTYAMNWVRQAPGKGLEWVARIRSKYNNYATYYADSVKDRFTISRDDSKNTLYLQMNSLRAEDTAVYYCVRHGNFGNSYVSWFAYWGQGTLVTVSSASTKGPSVFPLAPSSKSTSGGTAALGCLVKDYFPEPVTVSWNSGALTSGVHTFPAVLQSSGLYSLSSVVTVPSSSLGTQTYICNVNHKPSNTKVDKKVEPKSCGGSGAKLAALKAKLAALKGGGGSDKTHTCPPCPAPPVAGPSVFLFPPKPKDTLMISRTPEVTCVVVDVSHEDPEVKFNWYVDGVEVHNAKTKPREEQYNSTYRVVSVLTVLHQDWLNGKEYKCKVSNKGLPSSIEKTISKAKGQPREPQVYTLPPSRDELTKNQVSLTCLVKGFYPSDIAVEWESNGQPENNYKTTPPVLDSDGSFFLYSKLTVDKSRWQQGNVFSCSVMHEALHNHYTQKSLSLSPGK
chain 2: QAVVTQEPSLTVSPGGTVTLTCRSSTGAVTTSNYANWVQQKPDHLFRGLIGGTNKRAPGTPARFSGSLLGDKAALTISGAQPEDEAEYYCALWYSNLWVFGGGTKLTVLKRTVAAPSVFIFPPSDEQLKSGTASVVCLLNNFYPREAKVQWKVDNALQSGNSQESVTEQDSKDSTYSLSSTLTLSKADYEKHKVYACEVTHQGLSSPVTKSFNRGECGGGGSELAALEAELAALEAGGSGDKTHTCPPCPAPPVAGPSVFLFPPKPKDTLMISRTPEVTCVVVDVSHEDPEVKFNWYVDGVEVHNAKTKPREEQYNSTYRVVSVLTVLHQDWLNGKEYKCKVSNKGLPSSIEKTISKAKGQPREPQVYTLPPSRDELTKNQVSLTCLVKGFYPSDIAVEWESNGQPENNYKTTPPVLDSDGSFFLYSKLTVDKSRWQQGNVFSCSVMHEALHNHYTQKSLSLSPGKGGSGGSGGGGSGGGGSDIQMTQSPSSLSASVGDRVTITCQASQDISNYLNWYQQKPGKAPKLLIYDASNLETGVPSRFSGSGSGTDFTFTISSLQPEDIATYFCQHFDHLPLAFGGGTKVEIKGGGGSGGGGSGGGGSQVQLQESGPGLVKPSETLSLTCTVSGGSVSSGDYYWTWIRQSPGKGLEWIGHIYYSGNTNYNPSLKSRLTISIDTSKTQFSLKLSSVTAADTAIYYCVRDRVTGAFDIWGQGTMVTVSS
EGFR on F98-EGFR cells [2]
  Kd: 5.47 nM
[3]
  Kd: 4.16 nM
